# Test results taken from patent US20200291444A1, “Macrocyclisation Tags” (Oxford University Innovation LTD, priority 2017, published 2020).
# What was measured:
# [1] = biological target: T1, GmPOPB_S577A (Galerina marginata), H2E7Q8; test: ITC, peptide titrated into GmPOPB_S577A, 20 C
# T1 chain: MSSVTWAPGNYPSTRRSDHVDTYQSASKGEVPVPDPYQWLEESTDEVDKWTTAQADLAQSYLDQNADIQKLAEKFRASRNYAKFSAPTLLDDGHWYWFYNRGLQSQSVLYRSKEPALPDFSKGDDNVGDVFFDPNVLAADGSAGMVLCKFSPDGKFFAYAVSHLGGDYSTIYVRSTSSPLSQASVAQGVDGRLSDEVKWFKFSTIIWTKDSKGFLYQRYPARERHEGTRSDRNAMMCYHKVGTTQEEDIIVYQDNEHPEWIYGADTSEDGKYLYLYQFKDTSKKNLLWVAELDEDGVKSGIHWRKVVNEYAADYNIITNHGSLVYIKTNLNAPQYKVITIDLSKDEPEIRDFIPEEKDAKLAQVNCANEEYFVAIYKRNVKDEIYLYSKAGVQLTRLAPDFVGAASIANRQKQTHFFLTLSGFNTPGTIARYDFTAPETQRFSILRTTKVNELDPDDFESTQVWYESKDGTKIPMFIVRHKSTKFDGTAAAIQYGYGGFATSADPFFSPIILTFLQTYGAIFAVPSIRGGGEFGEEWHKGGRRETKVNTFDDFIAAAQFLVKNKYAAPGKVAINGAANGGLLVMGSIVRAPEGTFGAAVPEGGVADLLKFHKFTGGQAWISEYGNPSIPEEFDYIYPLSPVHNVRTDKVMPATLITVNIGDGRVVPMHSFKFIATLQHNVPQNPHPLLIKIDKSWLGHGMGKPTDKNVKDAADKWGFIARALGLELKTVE
# [2] = biological target: T1, GmPOPB_S577A (Galerina marginata), …; test: ITC
# [3] = biological target: T1, GmPOPB_S577A (Galerina marginata), …; test: ITC, 20 C, single-site model
binder,measurement,setting,value
IWGIGCNPWTA (modifications not checked) [11mer truncated substrate],Kd,[1],39 µM
IWGIGCNPWTAEH (modifications not checked) [13mer truncated substrate],Kd,[1],2.4 µM
same,fold difference in affinity against the 35mer,[2],20 fold
same,fold reduction in binding against the 35mer,[2],10 fold
IWGIGCNPWT (modifications not checked) [10mer truncated substrate],Kd,[1],83 µM
VDQTLASGNDIC (modifications not checked),Kd,[1],5 µM
same,fold reduction of binding affinity against the 17mer recognition sequence,[2],20 fold
TLASGNDIC (modifications not checked),Kd,[1],121 µM
IWGIGCNPWTAEHV (modifications not checked) [14mer truncated substrate],Kd,[1],9.5 µM
IWGIGCNPWTAE (modifications not checked) [12mer truncated substrate],Kd,[1],21 µM
WTAEHVDQTLASGNDIC (modifications not checked) [recognition sequence (17mer) …],Kd,[3],0.43 µM
